Common to all, as to assay: co-IP
Assay [1] concerns the target Vps13^N1 (Vps13^GFP, conserved asparagine of VAB repeat 1 to alanine) (S. cerevisiae) (UniProt Q07878).
Assay [2] has as its target Vps13^N3 (Vps13^GFP, conserved asparagine of VAB repeat 3 to alanine) (S. cerevisiae) (UniProt Q07878).
Assay [3] deals with Vps13^N4 (Vps13^GFP, conserved asparagine of VAB repeat 4 to alanine) (S. cerevisiae, UniProt Q07878 1-3144, Vps13^N4A (N2216)).
Assay [4] has as its target Vps13^N4S (Vps13^GFP N2216S, models VPS13B N2993S) (S. cerevisiae, UniProt Q07878 1-3144, Vps13^N4S (N2216)).
Assay [5] addresses Vps13^N2,3,4S (Vps13^GFP, conserved asparagines of VAB repeats 2, 3 and 4 to serine) (S. cerevisiae) (UniProt Q07878).

The record followed here is PMC7068118 (Human Molecular Genetics, 2020).

B1: Ypt35-3HA (natural protein)
chain: MSDKISFLPPEPIQLLDEDSTEPELDIDSQQENEGPISASNSNDSTSHSNDCGATITRTRPRRSSSINANFSFQKAHVSDCTIVNGDHGTKFAVWRITVFLEPNLKAFAAKRESYKIQTYKRYSDFVRLRENLLTRIKTAKPEKLNCLQIPHLPPSVQWYSSWKYQEVNLNKDWLAKRQRGLEYFLNHIILNSSLVEMTKDILIQFLEPSKRVA
In assay [1], B1 had a recovery relative to WT of 24%.

B2: Mcp1-3HA (natural protein, S. cerevisiae, UniProt Q12106 1-302, looked up)
chain: MIKLHEVPPEPVDPASLPHDVNAHSPEGDGNPDKRKKIFGIPYPFSRSSCRRFLWNCQKISVLPMALYFPLHAANTLITPAVSPDSAPDDVLMMVREILPSITTKLLVAGITLHVSAGVLLRIVNNWNKPRRNRHRHLKISAEQDLSQDSIGLTGGISGYLFGLYKTFRIPPQVISGYILVPVLIYHLLIMKWVPNSISTEVDFASIKQLLSSKNRWWKWLGGLVPLAILLESGVYHIGSGLCRYFGVRKMTSRKKWSTAINLLTLVGFVSLIRLMKEDSTKLGPNQFESIFKKIRLLLHVN
Take B2: the recovery relative to WT in assay [1] was 24%; in assay [2], 67%; in assay [3] it was 42%. Besides, in assay [4], the “pull-down relative to WT” value was determined as 77%.

B3: Spo71-3HA (natural protein)
chain: MDSIVNVVEDDVKYAQRVTSFSSPQNANVKVFTIPRHSFTAFRLSYVSPTELSACSQVTLLGGIPKQWYADQNNQVWKLLTKISLRKVRKQSDMLRRYGYGTIYKKRVGKIPTALYLRKHFTWSYEDNTSIHNGHRLKEAEMEMKRTRSSPVQKSEYKLSLPRRCRSSSDQNFMRQELLKEKKSELSRNNSLPLIDTAQAVDIHPVLHEEDQENTNKRNKSLLSNLKRKDLGESKSISRKDYSHFDRIPSPSSARSVGETDFNYNREPSEDTLRYPDSIIEVTNRTSPAPNSILSRSGQFVNSNDLSDGFSTSNTINNVGLNANEKIFFNALQSMEKENLMLWKTSQKYGTYLDERRKSADAFQKRERGSCVDIGKLHSSHLPFINILPPWPTELTEEERIIHDRLASKHSHHIRKHVHNARNKTSCKIKDSVGTFLGMTNSLTNKATVKKRTGQILKKEKMLVMVKEAIQNKVPLPNFSENECFDTRVSERWKEYIVIARSTGRFDPPILLQFYRHRHIPEIEDISSIATKYHRNPLDFFLSRNCIVKFYSSLDKTISIQKPDKRLGGFIDESIEKKDELKHYSPIKIFILRCSSIRSSGRWYKFLLESLDRQLFTPAINLKIPLTEISIKINLNEIIFQKLIDLGKQEKDRLKICFLQRGYKIFQHPILRYFTVAILEKLKLAHYDYLIRKWDTENPVLGCALKRYDRLEWIPCDEDSLVTGIFAFCQSHLIQYRPIANRLRETKSLEGKCLKEPTPIEGFLIRLTDKYGSARTNFGKYSISTAYFFTCENLLFSMKAYRANPPLPIDSMIDDTSTEIEKEEIWKQWKKIPEVYEQQPYPLDTNDHIEWMNCQTTQSEYDSRDFYAFHCFHRRIDQILKTDNVIDLTEVKDIYQGTRTDYEADKIKYGVYKEASEIFWHRNYEIDDVSRSVINIETSNGLLLKLLATSATVAEEWVIKLKQMISYWKNKQREDTERLLKIRRSNAGLLMLNGEEETKIGENTLRWIVEHGRADEQTFNANGISLSRPLIQKGPLYQKPHKHSVFSKYYVVLISGFIVLFHCFHRSTTGFAKEVLEYAHYVTIPIDDCYLYSGTTTELDLLQRDRTFDEINYGSHALPRVYGDGWRSVEDESSRCFTLWFGTRRALSSNRLQKKGNEKQYTQDYGRQDNNIDPPSAPEADLNNSNVPSNTDKIHFTKKLGVSGKSMVFMARSRQERDLWVMSIYYELERLRRTASTSNSRNQTM
In assay [1], B3 showed a pull-down relative to WT of 41%. Further, in assay [5], the recovery relative to WT came out at 42%.
